Results taken from a protein production outcome set (Wang et al. 2014).

Experiment: label from the status in PepcDB records

Row | Sequence | protein production
1 | MVLGEFAPWRLWSLAGSAKDWRGSKQPRAMTDLVTNQAWTLIDNGRAADALRLTTGPVALPQASAGLLMAHAAALKALGRTDEALTFNRRAVARAPGDRFSWYNLAATLGDLALDDEAEGAARKTIALGLDVPEVRLVLGKALQGLHRYDEAEATFVRALAARPSDATVHLNLAQLRWMRSGRSDEALAPLDAAIARHPADVTLRTIRSNVLTFAGDHAGADATLEDALTRAPGDLAVRIAAARAAGAVGDRARMLAHAREAARLAPGALESQTVLCEALLAAGQADVAARTAEALVAAAPDDQYALVLRNTAWRITGDAQGDLFRDYAALVRTDRLETPEGWDSLDAFLDALRDRMLELHDLKTHPLNQSLRGGSQVPSLDRSRDPLVQAFFACAHKAVARYIEALGAGEDPIRRRRASDFAFAGGWSVRLRSEGFHADHVHPRGWISSAFYLDLPGRFDDETTRAGWLRFGRPGCLTEPALEAEHFIKPERGTLALFPSCLWHGTQPFTDADHRLTIAFDVVPR | failed
2 | MSLNARARALRHSRSGTIGLIVPDVNNAVFADMFSGVQMAASGHSTDVLLGQIDAPPRGTQQLSRLVSEGRVDGVLLQRREDFDDDMLAAVLEGVPAVTINSRVPGRVGSVILDDQKGGGIATEHLITLGHSRIAFISGTAIHDTAQRRKEGYLETLASAGLRSEAAWVVDAGWEADAGSAALNTLYRGANLGKPDGPTAVVVASVNAAVGALSTALRLGLRVPEDLSIVGINTTWVSDTVYPALTTVRLPLQRLGEVAADVLMEHLGGRALTDTVVTQPTPELLVRETTAPPTREGHHHHHH | not failed
3 | MSALREALRDLPDAVFADVLESEDEYLLVLDLPGVTAETIDVTVEGGRLRIDGQRTKDVPGEFTFVREDRSVFLDAELPLPPDTTGQGGEGTVENGVLELRLPKATAAPSTTIPIDGD | failed
4 | MNGFSQLEGLRGHPSVVRVIGHRGARGVMPENTLEGFAFTLAAGVRALEFDVVMTADGVPVVTHNHHLANAMTRDGQGHWLTGAERQVAEMTYAEIRALDVGGLDGRTVYGRRFPDQAFLTGIHVPRLGELLDLCAGYGDQAPYLLLELKSDPALMHDHAARAEMVAAVLADVRRYRMEPRTVMHSFDWALLGECRRQAPDLPTSYLSQLPENADDPGEDSAKPVGPDYDRMTESLPQAVASAGGQLWCPYFLDVTPELVAEAHDLGLIVLTWTVNEPEDIRRMATTGVDGIVTDYPGRTQRILIDMGLSWT | not failed
5 | MTSIWGQIQHILQNTLAPGLFKVWISPLAGEVDGSTLRVEAPNEFVAGWVRDRLFEDIRTAACGVIGDTVEVVVTAGAPAAAAPRPVLAPRPAVVEVVPTAAPVPSVVPAVEARPSGHAPRRLSAETQQAQEQLGLPLDWAPVPQSRTNWRFSFDDFIVGPNNELACAAARGMCRDGLMTDTLFLSSGPGLGKTHLLHAVGRSLCESSNRSNPNVAYLTAEEFASRLIAALKARDVERFKARYRDVDVLLLEDVHFLQGKEKMQDEVLATVKALQSRGSRIVFSSSFAARDLKNVDNQLVSRFCSGFLAGIERPDFDTRRRILREKARIYQVMLPDNVTDLLAERISTDVRQIESCLHNLILKAKLLNRQISLEMAFEIIGNYAQAETQLDFEGIVRMVCEGFGLSPEQLNSRSRKREYVVARNAAYLLARKHTDLSLKEIGDRFNRRHSTVLKGITALEREMNRETPLGRQVANTISLLERNGRITHARH | failed
6 | MAKALEQPFDVANIPGPKMATLLEKGKPVANMIKKAKRPLLIVGPDMTDEMFERVKKFVEKDITVVATGSAITRFIDAGLGEKVNYAVLHELTQFLLDPDWKGFDGQGNYDLVLMLGSIYYHGSQMLAAIKNFAPHIRALAIDRYYHPNADMSFGNLWKKEEDYLKLLDEILAEL | not failed
7 | MIEIKQVKTQDEVNYTFVEKLMHTAFPQEERRDTVQQREYSDNNPRFCNNIILENGNSIGMISYWTMGDFYYIEHFAIDPSLRNGGYGKRVLEMIKKQLKGPIVLEVEEPNDEMSTRRIHFYKRLEFTLHKKPYIQPPYRKGDSGLPMLLMTYGDIDMESDFEKVKKTLYKEVYGQEI | not failed
8 | MQKGVYIMNSTSSIITIGREYGSGGRQIGQEVAKYFGIKCYDKELLEHAANDSGICKELFEHHDEKPTNSFLYSLVMDTYSFGYSSSGFSDMPMNHKIFLAQFDAIKKLAGEGPCVMVGRCADYALADWNDCFSIFVHADLDWRINRIASKHGKTPKEAKDMITKTDKSRASYYNYYTNKKWGAARSYNLCIDSGKLGIDYATEAIIESIKIFDRTKISK | failed
9 | FSIGVTGVMSAGKSTMLNAILQREILGTSVIPETANLTILRFDQNERAIVRFWNRHEWEMIAQSAQFDEGIDYFMKESLTVFGTVLHEYITQEGRTYEIPLEELSTYTSAKHPSKLCNLVKSVEIFTPLEFLDDGVEIVDTPGLDDPLTQREEITKEYLARCDVMLHLMNAAQPATQKDVDFIIDALIYQNVSRLLVILTRADSLTPQE | failed
10 | MNVYFLGGGNMAAAVAGGLVKQGGYRIYIANRGAEKRERLEKELGVETSATLPELHSDDVLILAVKPQDMEAACKNIRTNGALVLSVAAGLSVGTLSRYLGGTRRIVRVMPNTPGKIGLGVSGMYAEAEVSETDRRIADRIMKSVGLTVWLDDEEKMHGITGISGSGPAYVFYLLDALQNAAIRQGFDMAEARALSLATFKGAVALAEQTGEDFEKLQKNVTSKGGTTHEAVEAFRRHRVAEAISEGVCACVRRSQEMERQYQ | not failed
11 | HYGEEPELVPSYTIFFSGCNFRCVFCQNWDISQFRVGVELLPEYLALKIERAYRFGARNVNFVGGEPTPNLPYILETLRYVNVPIPVVWNSNMYMSEEAMKLLDGIVD | failed
12 | MSSPSLSPHYQKMLDDLDGQVLQLDRQVFRRLARLGYQPQVIFDVGASNSGWSYYIKQVVTEADFYLFEPLVDHVPDYQGLMEETLRVYPSFHLYKYALGDRDGTITVNVFDDPASSTTLPMTEGGPSINAVQVPLLTLDSALVKLGLPQPQVIKIDTQGNELSILRGAAQTLAKVDVLFLECWLYRGYGPKTPLLTEIAHWLLPFNFRLWDVSEPYRGPQGELTTLDCIFINTAAGLVPNWYY | failed
13 | MSLASFPVQILPNLYLGSARDSANLESLAKLGIRYILNVTPNLPNFFEKNGDFHYKQIPISDHWSQNLSRFFPEAIEFIDEALSQNCGVLVHSLAGVSRSVTVTVAYLMQKLHLSLNDAYDLVKRKKSNISPNFNFMGQLLDFERSLREGHHHHHH | not failed
14 | MAASMARGVSARVLLRAAGGSWGPRAGHAAVTSRTFGSTGERRAGEDEADSPELPRDVVNVVFVDRSGKRIPVRGRVGDNVLHLAQRHGVDLEGACEASLACSTCHVYVSEAHLDLLPPPEEREDDMLDMAPLLQENSRLGCQIVLTPELEGAEFALPKITRNFYVDGHIPKPH | failed
15 | MNISKEKVVDAISMVGYFVFAYVVMELLSINKYDWMMESGDSICSIPHQPLSNRILQAGVAALLLITPLFIALARNIFIKNRYKIAYYIVGILCIALYGGWLFLGRFALC | failed
16 | NLMKRCTRGFRKLGKCTTLEEEKCKTLYPRGQCTCSDSKMNTHSCDCKSC | not failed
17 | MSDILYSLLISAFLGLAHGLDADHIANVRIFKSVKKIFEFSLFHSAGFLIIAIPLSLLSLVTILEFPLLITSYSIGLLVSGLLLYGTVKGKELEIEPKRFGLLQGALVISPSKLIVLILALASESIFYAVLILLVFIVTSIISFMIFSLLNLIPKRFDKIVNIVISLGSIIYILYELITTLMSMH | failed
18 | MSDKYYRSAYMNVDLNAVASNFKVFSTLHPNKTVMAVVKANAYGLGSVKVARHLMENGATFFAVATLDEAIELRMHGITAKILVLGVLPAKDIDKAIQHRVALTVPSKQWLKEAIKNISGEQEKKLWLHIKLDTGMGRLGIKDTKTYQEVIEIIQQYEQLVFEGVFTHFACADEPGDMTTEQYQRFKDMVNEAIKPEYIHCQNSAGSLLMDCQFCNAIRPGISLYGYYPSEYVQQKVKVHLKPSVQLIANVVQTKTLQAGESVSYGATYTATDPTTIALLPIGYADGYLRIMQGSFVNVNGHQCEVIGRVCMDQTIVKVPDQVKAGDSVILIDNHRESPQSVEVVAEKQHTINYEVLCNLSRRLPRIYHDGDQRFVTNELLK | not failed
19 | ANLYWFRADWFERPDLKKKFKDKYGYELGVPVNWSAYEDIAKFFSEDVKEIDGKKVFGHMDYGKKDPSLGWRFTDAWFSMAGSGDKGLPNGLPVDEWGIRVEDCHPVGSSITRGGDTNGPAAVFATQKYIDWLKAYAPPEAAGMTFSESGPVPSQGNVAQQIFWYTAFTADMTKPGLPVMNADGTPKWRMAPSPKGPYWKEGMKLGYQDVGSWTFLKSSDEKKRLAAWLYAQFVTSKSVSLKKTIVGLTPIRESDINSK | failed
20 | MTTPFVLAVPSKGRLQENAEAFFARAGLTLSKLGGARDYRGTIAGLDNVEIAYLSASEIAAQLARGTVHLGITGEDLIRESIADADKKVALIEGLGFGGANVVVAVPQAWIDVRTMADLDDVTTGFRAQHNRRMRVATKYINLTRNFFAAHGVVDYRIVESAGATEGAPAVGTAEMIVDITSSGATLVANGLKVLDDGVILRSQANLVASRAADWSADALETARVILDRIAARARANKYKEVRTRFAGCDASLLTEAHNRFGVVSPFGGPTSSGMITLHCPPAQLYALGSFLRDHGADTVSIASLDYVLDRENPLFAKLESFLRQ | failed
21 | MADLPSISLITATYNAAQHLPGLIESVRQQSDRAFEWIVIDGASEDGTLDLIRGAQDVITDYVSEPDFGIFHALNKGIQRATGDYYLVVGADDRLDPLAIANYKQAAASSQADLISAYIYSEKKAIIKPTGGAIWHHGVQAFITTQSVGTLIKRNLHEHYGYYSHYYPTAADALFILKVQQGGGKITTAEFIAGQYNTKGFSYRYKANLLCELFLIQKEFFPKSIQLLLLIYRLIKNYRYLLEHHHHHH | failed
22 | MNSKNTICLWYDSAALEAATFYAETFPDSAVLAVHRAPGDYPSGKEGDVLTVEFRVMGIPCLGLNGGPAFRHSEAFSFQVATDDQAETDRLWNAIVDNGGEESACGWCRDKWGISWQITPRVLSEAIASPDRAAARRAFEAMMTMGRIDIATIEKAFKG | not failed
23 | MDMTYNMRNAMASSRNMEEPQYDMSTIDLTQNSMNTNYLMNGSVLTNAYNNDYIVNNRDKYTGDMISQLKIDQGIPTYSHTLPMNGTTLADTNDSLNIQGMMRTNMDTTGFDGYSHIMNYNNTQNTIQTNPITYRMEDYNNLNNDVMYINPTTGEKFSAEYVNNIPTNDSDNMLYSNNFKNNSINMNTLLNSHYNNLPYPMPIYESMNNPQMYMQHMNQKQTVNIPLQHGEKKSAARNISTVNKRRIKTKKFFPCC | failed
24 | MELKNKKLSLWEAVSMAVGVMIGASIFSIFGVGAKIAGRNLPETFILSGIYALLVAYSYTKLGAKIVSNAGPIAFIHKAIGDNIITGALSILLWMSYVISIALFAKGFAGYFLPLINAPINTFNIAITEIGIVAFFTALNFFGSKAVGRAEFFIVLVKLLILGLFIFAGLITIHPSYVIPDLAPSAVSGMIFASAIFFLSYMGFGVITNASEHIENPKKNVPRAIFISILIVMFVYVGVAISAIGNLPIDELIKASENALAVAAKPFLGNLGFLLISIGALFSISSAMNATIYGGANVAYSLAKDGELPEFFERKVWFKSTEGLYITSALGVLFALLFNMEGVASITSAVFMVIYLFVILSHYILIDEVGGRKEIVIFSFIVVLGVFLLLLYYQWITNRFVFYGIIATFIGVLIFEIIYRKVTKRTFSNNMYVKS | not failed
